Measurements: doi:10.1101/2025.02.11.637337 (bioRxiv, 2025)

Columns and labels:
[1] = target: the molecule itself; test: crystal structure
[2] = target: the molecule itself; test: SEC + native gel or EMSA

| Protein | stoichiometry N [1] | stoichiometry N [2] |
| --- | --- | --- |
| Fr-H6(E53H/E56H/E57H/R59H/E60H/E63H) (natural protein, horse) SSQIRQNYSTEVEAAVNRLVNLYLRASYTYLSLGFYFDRDDVALEGVCHFFRHLAHHKHHGAHRLLKMQNQRGGRALFQDLQKPSQDEWGTTLDAMKAAIVLEKSLNQALLDLHALGSAQADPHLCDFLESHFLDEEVKLIKKMGDHLTNIQRLVGSQAGLGEYLFERLTLKHD | 24 | – |
| Fr-H2(E53H/E57H) (natural protein, horse) SSQIRQNYSTEVEAAVNRLVNLYLRASYTYLSLGFYFDRDDVALEGVCHFFRHLAEHKREGAERLLKMQNQRGGRALFQDLQKPSQDEWGTTLDAMKAAIVLEKSLNQALLDLHALGSAQADPHLCDFLESHFLDEEVKLIKKMGDHLTNIQRLVGSQAGLGEYLFERLTLKHD | – | 24 |
| Fr-H8(R52H/E53H/E56H/E57H/R59H/E60H/E63H/R64H) (natural protein, horse) SSQIRQNYSTEVEAAVNRLVNLYLRASYTYLSLGFYFDRDDVALEGVCHFFHHLAHHKHHGAHHLLKMQNQRGGRALFQDLQKPSQDEWGTTLDAMKAAIVLEKSLNQALLDLHALGSAQADPHLCDFLESHFLDEEVKLIKKMGDHLTNIQRLVGSQAGLGEYLFERLTLKHD | 24 | – |
| Fr-H4in(R52H/E56H/R59H/E63H) (natural protein, horse) SSQIRQNYSTEVEAAVNRLVNLYLRASYTYLSLGFYFDRDDVALEGVCHFFHELAHEKHEGAHRLLKMQNQRGGRALFQDLQKPSQDEWGTTLDAMKAAIVLEKSLNQALLDLHALGSAQADPHLCDFLESHFLDEEVKLIKKMGDHLTNIQRLVGSQAGLGEYLFERLTLKHD | – | 24 |
| Fr-H4ex(E53H/E57H/E60H/R64H) (natural protein, horse) SSQIRQNYSTEVEAAVNRLVNLYLRASYTYLSLGFYFDRDDVALEGVCHFFRHLAEHKRHGAEHLLKMQNQRGGRALFQDLQKPSQDEWGTTLDAMKAAIVLEKSLNQALLDLHALGSAQADPHLCDFLESHFLDEEVKLIKKMGDHLTNIQRLVGSQAGLGEYLFERLTLKHD | – | 24 |
